According to the Human Domainome abundance scans (Beltran et al. 2025):
± gives the uncertainty stated by the source.

B1: POU domain, class 3, transcription factor 3, residues 320 to 388; numbered along this chain, P20264 (parent)
chain: DDLEQFAKQFKQRRIKLGFTQADVGLALGTLYGNVFSQTTICRFEALQLSFKNMCKLKPLLNKWLEEAD

Variants of: B1
Test: abundance fitness (aPCA) (normalised: wild type 0, dead -1); higher = more abundant; growth selection in yeast, the domain comes from the species named
Details: Homo sapiens

Row | Variant | abundance fitness
1 | DDLEQFAKQFKQRRIKLGFTQADLGLALGTLYGNVFSQTTICRFEALQLSFKNMCKLKPLLNKWLEEAD [V24L] | -0.679 ± 0.18
2 | DDLEQFAKQFKQRRIKLGFTQADNGLALGTLYGNVFSQTTICRFEALQLSFKNMCKLKPLLNKWLEEAD [V24N] | -0.74 ± 0.33
3 | DDLEQFAKQFKQRRIKLGFTQADPGLALGTLYGNVFSQTTICRFEALQLSFKNMCKLKPLLNKWLEEAD [V24P] | -0.673 ± 0.29
4 | DDLEQFAKQFKQRRIKLGFTQADWGLALGTLYGNVFSQTTICRFEALQLSFKNMCKLKPLLNKWLEEAD [V24W] | -1.05 ± 0.35
5 | DDLEQFAKQFKQRRIKLGFTQADSGLALGTLYGNVFSQTTICRFEALQLSFKNMCKLKPLLNKWLEEAD [V24S] | -0.941 ± 0.31
6 | DDLEQFAKQFKQRRIKLGFTQADRGLALGTLYGNVFSQTTICRFEALQLSFKNMCKLKPLLNKWLEEAD [V24R] | -0.788 ± 0.12
7 | DDLEQFAKQFKQRRIKLGFTQADVGLALGALYGNVFSQTTICRFEALQLSFKNMCKLKPLLNKWLEEAD [T30A] | 0.063 ± 0.086
8 | DDLEQFAKQFKQRRIKLGFTQADVGLALGELYGNVFSQTTICRFEALQLSFKNMCKLKPLLNKWLEEAD [T30E] | -0.177 ± 0.15
9 | DDLEQFAKQFKQRRIKLGFTQADVGLALGDLYGNVFSQTTICRFEALQLSFKNMCKLKPLLNKWLEEAD [T30D] | -0.062 ± 0.21
10 | DDLEQFAKQFKQRRIKLGFTQADVGLALCTLYGNVFSQTTICRFEALQLSFKNMCKLKPLLNKWLEEAD [G29C] | -0.594 ± 0.3
11 | DDLEQFAKQFKQRRIKLGFTQADVGLALVTLYGNVFSQTTICRFEALQLSFKNMCKLKPLLNKWLEEAD [G29V] | -0.468 ± 0.13
12 | DDLEQFAKQFKQRRIKLGFTQADVGLALMTLYGNVFSQTTICRFEALQLSFKNMCKLKPLLNKWLEEAD [G29M] | -0.427 ± 0.12
13 | DDLEQFAKQFKQRRIKLGFTQADVGLALETLYGNVFSQTTICRFEALQLSFKNMCKLKPLLNKWLEEAD [G29E] | -0.02 ± 0.17
14 | DDLEQFAKQFKQRRIKLGFTQADVGLALWTLYGNVFSQTTICRFEALQLSFKNMCKLKPLLNKWLEEAD [G29W] | -0.478 ± 0.34
15 | DDLEQFAKQFKQRRIKLGFTQADVGLALYTLYGNVFSQTTICRFEALQLSFKNMCKLKPLLNKWLEEAD [G29Y] | -0.108 ± 0.098
16 | DDLEQFAKQFKQRRIKLGFTQADVGLALPTLYGNVFSQTTICRFEALQLSFKNMCKLKPLLNKWLEEAD [G29P] | -0.658 ± 0.21
17 | DDLEQFAKQFKQRRIKLGFTQADVGLALQTLYGNVFSQTTICRFEALQLSFKNMCKLKPLLNKWLEEAD [G29Q] | -0.554 ± 0.44
18 | DDLEQFAKQFKQRRIKLGFTQADVGLALKTLYGNVFSQTTICRFEALQLSFKNMCKLKPLLNKWLEEAD [G29K] | -0.01 ± 0.12
19 | DDLEQFAKQFKQRRIKLGFTQADVGLALNTLYGNVFSQTTICRFEALQLSFKNMCKLKPLLNKWLEEAD [G29N] | 0.041 ± 0.14
20 | DDLEQFAKQFKQRRIKLGFTQADVGLALLTLYGNVFSQTTICRFEALQLSFKNMCKLKPLLNKWLEEAD [G29L] | -0.929 ± 0.44

Row | Variant | abundance fitness
21 | DDLEQFAKQFKQRRIKLGFTQADVGLALATLYGNVFSQTTICRFEALQLSFKNMCKLKPLLNKWLEEAD [G29A] | 0.056 ± 0.068
22 | DDLEQFAKQFKQRRIKLGFTQADVGLALITLYGNVFSQTTICRFEALQLSFKNMCKLKPLLNKWLEEAD [G29I] | -0.464 ± 0.2
23 | DDLEQFAKQFKQRRIKLGFTQADVGLALDTLYGNVFSQTTICRFEALQLSFKNMCKLKPLLNKWLEEAD [G29D] | -0.736 ± 0.24
24 | DDLEQFAKQFKQRRIKLGFTQADVGLALHTLYGNVFSQTTICRFEALQLSFKNMCKLKPLLNKWLEEAD [G29H] | -0.154 ± 0.22
25 | DDLEQFAKQFKQRRIKLGFTQADVGLALFTLYGNVFSQTTICRFEALQLSFKNMCKLKPLLNKWLEEAD [G29F] | -0.388 ± 0.16
26 | DDLEQFAKQFKQRRIKLGFTQADVGLALRTLYGNVFSQTTICRFEALQLSFKNMCKLKPLLNKWLEEAD [G29R] | 0.02 ± 0.07
27 | DDLEQFAKQFKQRRIKLGFTQADVGLALTTLYGNVFSQTTICRFEALQLSFKNMCKLKPLLNKWLEEAD [G29T] | -0.004 ± 0.095
28 | DDLEQFAKQFKQRRIKLGFTQADVGLALSTLYGNVFSQTTICRFEALQLSFKNMCKLKPLLNKWLEEAD [G29S] | 0.092 ± 0.079
29 | DDLEQFAKQFKQRRIKLGFTQADVGLAAGTLYGNVFSQTTICRFEALQLSFKNMCKLKPLLNKWLEEAD [L28A] | -0.639 ± 0.2
30 | DDLEQFAKQFKQRRIKLGFTQADVGLARGTLYGNVFSQTTICRFEALQLSFKNMCKLKPLLNKWLEEAD [L28R] | -1.02 ± 0.19
31 | DDLEQFAKQFKQRRIKLGFTQADVGLASGTLYGNVFSQTTICRFEALQLSFKNMCKLKPLLNKWLEEAD [L28S] | -0.94 ± 0.21
32 | DDLEQFAKQFKQRRIKLGFTQADVGLAMGTLYGNVFSQTTICRFEALQLSFKNMCKLKPLLNKWLEEAD [L28M] | -0.594 ± 0.17
33 | DDLEQFAKQFKQRRIKLGFTQADVGLAKGTLYGNVFSQTTICRFEALQLSFKNMCKLKPLLNKWLEEAD [L28K] | -0.682 ± 0.3
34 | DDLEQFAKQFKQRRIKLGFTQADVGLANGTLYGNVFSQTTICRFEALQLSFKNMCKLKPLLNKWLEEAD [L28N] | -0.71 ± 0.23
35 | DDLEQFAKQFKQRRIKLGFTQADVGLAQGTLYGNVFSQTTICRFEALQLSFKNMCKLKPLLNKWLEEAD [L28Q] | -0.747 ± 0.24
36 | DDLEQFAKQFKQRRIKLGFTQADVGLATGTLYGNVFSQTTICRFEALQLSFKNMCKLKPLLNKWLEEAD [L28T] | -0.8 ± 0.34
37 | DDLEQFAKQFKQRRIKLGFTQADVGLAWGTLYGNVFSQTTICRFEALQLSFKNMCKLKPLLNKWLEEAD [L28W] | -0.981 ± 0.27
38 | DDLEQFAKQFKQRRIKLGFTQADVGLAGGTLYGNVFSQTTICRFEALQLSFKNMCKLKPLLNKWLEEAD [L28G] | -0.943 ± 0.12
39 | DDLEQFAKQFKQRRIKLGFTQADVGLAVGTLYGNVFSQTTICRFEALQLSFKNMCKLKPLLNKWLEEAD [L28V] | -0.703 ± 0.12
